According to publication PMC6687201, “Atg11 tethers Atg9 vesicles to initiate selective autophagy” (PLoS Biology, 2019):

T1: myc-tagged full length Atg11 (S. cerevisiae, UniProt Q12527 1-1178)
T1 construct: Atg11, scaffolding protein of selective autophagy, yeast; also called Atg11-myc; myc-Atg11; source: yeast cells expressing myc-tagged Atg11, in lysate
T1 sequence (looked up): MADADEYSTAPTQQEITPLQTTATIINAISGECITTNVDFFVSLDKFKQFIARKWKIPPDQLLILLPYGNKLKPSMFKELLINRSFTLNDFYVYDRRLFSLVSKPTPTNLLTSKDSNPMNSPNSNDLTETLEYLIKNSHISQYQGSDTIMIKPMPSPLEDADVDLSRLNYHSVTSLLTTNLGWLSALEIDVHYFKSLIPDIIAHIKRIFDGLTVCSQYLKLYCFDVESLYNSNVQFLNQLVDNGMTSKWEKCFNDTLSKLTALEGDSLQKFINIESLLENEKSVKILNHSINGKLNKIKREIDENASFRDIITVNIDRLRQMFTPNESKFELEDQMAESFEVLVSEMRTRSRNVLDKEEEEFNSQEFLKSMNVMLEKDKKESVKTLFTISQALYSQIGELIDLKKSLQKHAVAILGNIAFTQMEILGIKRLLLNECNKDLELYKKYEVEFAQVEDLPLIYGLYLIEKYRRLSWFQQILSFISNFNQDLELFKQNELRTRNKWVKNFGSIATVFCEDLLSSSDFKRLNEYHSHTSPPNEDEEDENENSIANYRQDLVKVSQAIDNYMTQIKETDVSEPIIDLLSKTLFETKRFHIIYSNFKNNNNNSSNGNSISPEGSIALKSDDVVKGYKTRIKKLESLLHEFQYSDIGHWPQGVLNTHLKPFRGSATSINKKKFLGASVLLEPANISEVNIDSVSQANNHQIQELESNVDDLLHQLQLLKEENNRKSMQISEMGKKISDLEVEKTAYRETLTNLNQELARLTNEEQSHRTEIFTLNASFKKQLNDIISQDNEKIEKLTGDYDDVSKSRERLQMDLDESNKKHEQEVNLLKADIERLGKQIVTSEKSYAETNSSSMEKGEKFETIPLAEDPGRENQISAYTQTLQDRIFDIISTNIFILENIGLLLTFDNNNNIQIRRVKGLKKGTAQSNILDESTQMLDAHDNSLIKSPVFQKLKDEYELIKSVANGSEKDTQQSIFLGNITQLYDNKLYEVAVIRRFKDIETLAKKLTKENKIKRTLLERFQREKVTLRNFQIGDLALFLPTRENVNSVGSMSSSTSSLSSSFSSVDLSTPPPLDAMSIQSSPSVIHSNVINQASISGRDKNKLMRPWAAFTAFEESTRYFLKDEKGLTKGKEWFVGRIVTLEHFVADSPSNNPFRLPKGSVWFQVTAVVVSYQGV

B1: HA-tagged Atg9 (natural protein, S. cerevisiae, UniProt Q12142 1-997, looked up)
chain: MERDEYQLPNSHGKNTFLSRIFGLQSDEVNPSLNSQEMSNFPLPDIERGSSLLHSTNDSREDVDENDLRVPESDQGTSTEEEDEVDEEQVQAYAPQISDGLDGDHQLNSVTSKENVLETEKSNLERLVEGSTDDSVPKVGQLSSEEEEDNEFINNDGFDDDTPLFQKSKIHEFSSKKSNTIEDGKRPLFFRHILQNNRPQRDTQKLFTSSNAIHHDKDKSANNGPRNINGNQKHGTKYFGSATQPRFTGSPLNNTNRFTKLFPLRKPNLLSNISVLNNTPEDRINTLSVKERALWKWANVENLDIFLQDVYNYYLGNGFYCIILEKILNICTLLFVVFVSTYMGHCVDYSKLPTSHRVSDIIIDKCYSNSITGFTKFFLWMFYFFVILKIVQLYFDVQKLSELQNFYKYLLNISDDELQTLPWQNVIQQLMYLKDQNAMTANVVEVKAKNRIDAHDVANRIMRRENYLIALYNSDILNLSLPIPLFRTNVLTKTLEWNINLCVMGFVFNESGFIKQSILKPSQREFTREELQKRFMLAGFLNIILAPFLVTYFVLLYFFRYFNEYKTSPGSIGARQYTPIAEWKFREYNELYHIFKKRISLSTTLANKYVDQFPKEKTNLFLKFVSFICGSFVAILAFLTVFDPENFLNFEITSDRSVIFYITILGAIWSVSRNTITQEYHVFDPEETLKELYEYTHYLPKEWEGRYHKEEIKLEFCKLYNLRIVILLRELTSLMITPFVLWFSLPSSAGRIVDFFRENSEYVDGLGYVCKYAMFNMKNIDGEDTHSMDEDSLTKKIAVNGSHTLNSKRRSKFTAEDHSDKDLANNKMLQSYVYFMDDYSNSENLTGKYQLPAKKGYPNNEGDSFLNNKYSWRKQFQPGQKPELFRIGKHALGPGHNISPAIYSTRNPGKNWDNNNNGDDIKNGTNNATAKNDDNNGNNDHEYVLTESFLDSGAFPNHDVIDHNKMLNSNYNGNGILNKGGVLGLVKEYYKKSDVGR
notes: Atg9, transmembrane autophagy protein, yeast; also called HA-Atg9; source: yeast cells expressing HA-tagged Atg9, in lysate
B2: recombinant purified Atg11^ΔC (residues 1-667) (domain or fragment, yeast, UniProt Q12527 1-667, looked up)
chain: MADADEYSTAPTQQEITPLQTTATIINAISGECITTNVDFFVSLDKFKQFIARKWKIPPDQLLILLPYGNKLKPSMFKELLINRSFTLNDFYVYDRRLFSLVSKPTPTNLLTSKDSNPMNSPNSNDLTETLEYLIKNSHISQYQGSDTIMIKPMPSPLEDADVDLSRLNYHSVTSLLTTNLGWLSALEIDVHYFKSLIPDIIAHIKRIFDGLTVCSQYLKLYCFDVESLYNSNVQFLNQLVDNGMTSKWEKCFNDTLSKLTALEGDSLQKFINIESLLENEKSVKILNHSINGKLNKIKREIDENASFRDIITVNIDRLRQMFTPNESKFELEDQMAESFEVLVSEMRTRSRNVLDKEEEEFNSQEFLKSMNVMLEKDKKESVKTLFTISQALYSQIGELIDLKKSLQKHAVAILGNIAFTQMEILGIKRLLLNECNKDLELYKKYEVEFAQVEDLPLIYGLYLIEKYRRLSWFQQILSFISNFNQDLELFKQNELRTRNKWVKNFGSIATVFCEDLLSSSDFKRLNEYHSHTSPPNEDEEDENENSIANYRQDLVKVSQAIDNYMTQIKETDVSEPIIDLLSKTLFETKRFHIIYSNFKNNNNNSSNGNSISPEGSIALKSDDVVKGYKTRIKKLESLLHEFQYSDIGHWPQGVLNTHLKPFRGSA
notes: Atg11, yeast, N-terminal fragment, residues 1-667; expressed from pCoofy37-Atg11^ΔC; molecular weight 78.2 kDa; Made from the same vector as full-length Atg11, so it may also carry a C-terminal His6 tag and an N-terminal Gly-Pro; also called purified Atg17-like domain of Atg11; source: E. coli BL21 (DE3), coexpressed with chaperones from pG-KJE8, purified

What was measured:
[1] = biological target: T1, myc-tagged full length Atg11; test: co-IP; IP of myc-tagged Atg11 (anti-myc, Protein A magnetic beads), co-IP of HA-tagged Atg9; lysates of WT, atg13Δ, atg17Δ, atg29Δ and atg31Δ cells, log phase and starved; 25 mM Tris-HCl pH 7.2, 150 mM NaCl, 0.2% NP-40; settings: partners not purified
[2] = biological target: the molecule itself; test: SEC; purified Atg11^ΔC on a Superose 6 column

Binder	fold binding in atg17Δ against wild-type cells, upon starvation [1]	stoichiometry N [2]
B1	4.1 fold	
B2		2
